Test results published in the DeepSol protein solubility set.

assay: soluble on expression in E. coli; label from the status in PepcDB or PDB records

Sequence | soluble on expression in E. coli
APVPTYQTLIVRPGDLQQSVLATGKLDALRKVDVGAQVSGQLKTLSVAIGDKVKKDQLLGVIDPEQAENQIKEVEATLMELRAQRQQAEAELKLARVTYSRQQRLAQTQAVSQQDLDNAATEMAVKQAQIGTIDAQIKRNQASLDTAKTNLDYTRIVAPMAGEVTQITTLQGQTVIAAQQAPNILTLADMSAMLVKAQVSEADVIHLKPGQKAWFTVLGDQLTRYEGQIKDVLPTPEKVNDAIFYYARFEVPNPNGLLRLDMTAQVHIQLTDVKNVLTIPLSALGDPVGDNRYKVKLLRNGETREREVTIGARNDTDVEIVKGLEAGDEVVIGEAKPGAAQ | soluble
AQARMGDSRDLCPHLDSIGEVTKEDLLLKSKGTCQSCGVTGPNLWACLQVACPYVGCGESFADHSTIHAQAKKHNLTVNLTTFRLWCYACEKEVFLEQRLAAPLLGSSSKFSEQDSPPPSHPLKAVPIAVADEGESESEDDDLKPRGLTGMKNLGNSCYMNAALQALSNCPPLTQFFLECGGLVRTDKKPALCKSYQKLVSEVWHKKRPSYVVPTSLSHGIKLVNPMFRGYAQQDTQEFLRCLMDQLHEELKEPVVATVALTEARDSDSSDTDEKREGDRSPSEDEFLSCDSSSDRGEGDGQGRGGGSSQAETELLIPDEAGRVISEKERMKDRKFSWGQQRTNSEQVDEDADVDTAMAALDQPAEAQPPSPRSSSPCRTPEPDNDAHLRSSSRPCSPVHHHEGHAKLSSSPPRASPVRMAPSYVLKKAQVLSAGSRRRKEQRYRSVISDIFDGSILSLVQCLTCDRVSTTVETFQDLSLPIPGKEDLAKLHSAIYQNVPAKPGACGDSYAAQGWLAFIVEYIRRFVVSCTPSWFWGPVVTLEDCLAAFFAADELKGDNMYSCERCKKLRNGVKYCKVLRLPEILCIHLKRFRHEVMYSFKINSHVSFPLEGLDLRPFLAKECTSQITTYDLLSVICHHGTAGSGHYIAYCQNVINGQWYEFDDQYVTEVHETVVQNAEGYVLFYRKSSEEAMRERQQVVSLAAMREPSLLRFYVSREWLNKFNTFAEPGPITNQTFLCSHGGIPPHKYHYIDDLVVILPQNVWEHLYNRFGGGPAVNHLYVCSICQVEIEALAKRRRIEIDTFIKLNKAFQAEESPGVIYCISMQWFREWEAFVKGKDNEPPGPIDNSRIAQVKGSGHVQLKQGADYGQISEETWTYLNSLYGGGPEIAIRQSVAQPLGPENLHGEQKIEAETRAV | soluble
AQSSTDVIDQLFTALSGWFHGSEEKLGEFRGCFFINTSAEFSDDSGEIATYCRHHKQQVRELIQRYLKSDNTSLLDAICIMKEGAITTAYMTKEYDDVTKKCVEILHKL | not soluble
ARGHRHTCKVMVLKEEAAGSERALALDMREGQRVFHSLIVHFENDIPVQIEDRFVNAQVAPDYLKQDFTLQTPYAYLSQVAPLTEGEHVVEAILAEADECKLLQIDAGEPCLLIRRRTWSGRQPVTAARLIHPGSRHRLEGRFTK | soluble
ARKRAAGGEPRGRELRSQKSKAKSKARREEEEEDAFEDEKPPKKSLLSKVSQGKRKRGCSHPGGSADGPAKKKVAKVTVKSENLKVIKDEALSDGDDLRDFPSDLKKAHHLKRGATMNEDSNEEEEESENDWEEVEELSEPVLGDVRESTAFSRSLLPVKPVEIEIETPEQAKTRERSEKIKLEFETYLRRAMKRFNKGVHEDTHKVHLLCLLANGFYRNNICSQPDLHAIGLSIIPARFTRVLPRDVDTYYLSNLVKWFIGTFTVNAELSASEQDNLQTTLERRFAIYSARDDEELVHIFLLILRALQLLTRLVLSLQPIPLKSATAKGKKPSKERLTADPGGSSETSSQVLENHTKPKTSKGTKQEETFAKGTCRPSAKGKRNKGGRKKRSKPSSSEEDEGPGDKQEKATQRRPHGRERRVASRVSYKEESGSDEAGSGSDFELSSGEASDPSDEDSEPGPPKQRKAPAPQRTKAGSKSASRTHRGSHRKDPSLPVASSSSSSSKRGKKMCSDGEKAEKRSIAGIDQWLEVFCEQEEKWVCVDCVHGVVGQPLTCYKYATKPMTYVVGIDSDGWVRDVTQRYDPVWMTVTRKCRVDAEWWAETLRPYQSPFMDREKKEDLEFQAKHMDQPLPTAIGLYKNHPLYALKRHLLKYEAIYPETAAILGYCRGEAVYSRDCVHTLHSRDTWLKKARVVRLGEVPYKMVKGFSNRARKARLAEPQLREENDLGLFGYWQTEEYQPPVAVDGKVPRNEFGNVYLFLPSMMPIGCVQLNLPNLHRVARKLDIDCVQAITGFDFHGGYSHPVTDGYIVCEEFKDVLLTAWENEQAVIERKEKEKKEKRALGNWKLLAKGLLIRERLKRRYGPKSEAAAPHTDAGGGLSSDEEEGTSSQAEAARILAASWPQNREDEEKQKLKGGPKKTKREKKAAASHLFPFEKL | not soluble
ARQVICWCFTLNNPLSPLSLHDSMKYLVYQTEQGEAGNIHFQGYIEMKKRTSLAGMKKLIPGAHFEKRRGTQGEARAYSMKEDTRLEGPWEYGE | soluble
ARSAYSYIREAWKRPKEGQIAELMWHRMQEWRNEPAVVRIERPTRLDRARSLGYKAKQGIIVVRVAIRKGSSRRTRFNKGRRSKRMMVNRITRKKNIQRIAEERANRKFPNLRVLNSYSVGEDGRHKWHEVILIDPDHPAIKSDDQLSWISRTRHRLRTFRGLTSAGRRCRGLRGQGKGSEKVRPSLRVNGAKA | soluble
ARVLVVGDVMLDRYWFGEVDRISPEAPVPVVRVARREDRLGGAANVARNVAALGAQVTLIGVVGADEVGLRIERMAAEEGVRTDLVSDTEHPTTLKMRVLGRQQQLLRVDFEQHPEPAALDGISAAVARQLAQHDIVVLSDYAKGVLDRVESIIAAAVGHSLPVLVDPKGDHYERYRGATLVTPNRAEMREAVGRWKTEDELAERAQRLRLDLDLEALLVTRSEQGMTLFTDAGRDHADAAAHEVYDVSGAGDTVLATLAVMRAVGLSWGDAMRWANRAGGIVVGKLGTSVVTAAEL | not soluble
ASIFGVFDIKTDAVELRKKALELSRLMRHRGPDWSGIYASDNAILAHERLSIVDVNAGAQPLYNQQKTHVLAVNGEIYNHQALRAEYGDRYQFQTGSDCEVILALYQEKGPEFLDDLQGMFAFALYDSEKDAYLIGRDHLGIIPLYMGYDEHGQLYVASEMKALVPVCRTIKEFPAGSYLWSQDGEIRSYYHRDWFDYDAVKDNVTDKNELRQALEDSVKSHLMSDVPYGVLLSGGLDSSIISAITKKYAARRVEDQERSEAWWPQLHSFAVGLPGSPDLKAAQEVANHLGTVHHEIHFTVQEGLDAIRDVIYHIETYDVTTIRASTPMYLMSRKIKAMGIKMVLSGEGSDEVFGGYLYFHKAPNAKELHEETVRKLLALHMYDCARANKAMSAWGVEARVPFLDKKFLDVAMRINPQDKMCGNGKMEKHILRECFEAYLPASVAWRQKEQFSDGVGYSWIDTLKEVAAQQVSDQQLETARFRFPYNTPTSKEAYLYREIFEELFPLPSAAECVPGGPSVACSSAKAIEWDEAFKKMDDPSGRAVGVHQSAYK | soluble
ASLDSEVELLPHTSFAESLGPWSLYGTSEPVFADGRMCVDLPGGQGNPWDAGLVYNGVPVGEGESYVLSFTASATPDMPVRVLVGEGGGAYRTAFEQGSAPLTGEPATREYAFTSNLTFPPDGDAPGQVAFHLGKAGAYEFCISQVSLTTSAT | soluble
ASMTGGQQMGRDPGMTVTSQVKPEDEMDNWGRLILDGVSYSDMVGARDRPKEITWFDYWMSLANEYEQEAERKVALGHDLSAGELLMSAALCAQYAQFLWFDERRQKGQARKVELYQKAAPLLSPPAERHELVVDGIPMPVYVRIPEGPGPHPAVIMLGGLESTKEESFQMENLVLDRGMATATFDGPGQGEMFEYKRIAGDYEKYTSAVVDLLTKLEAIRNDAIGVLGRSLGGNYALKSAACEPRLAACISWGGFSDLDYWDLETPLTKESWKYVSKVDTLEEARLHVHAALETRDVLSQIACPTYILHGVHDEVPLSFVDTVLELVPAEHLNLVVEKDGDHCCHNLGIRPRLEMADWLYDVLVAGKKVAPTMKGWPLEHHHHHH | soluble
ATFTSLANQAASREDYEFHRTVLLASGGLLLSGDPLPEITPFASKTLAKLMLRQRRSQESAKFTALSLSHAFLKLTDKNDLHCLFNYANHNATEFTLTADQPVDWYDYWTGEKLNQDPCQLLLVSVDRGLNAKAIVTA | not soluble
ATQFTASILSLYNSEQMLQKTDPMSVISSAMVAATLDLPIDKNLGYAWIVPYGGKAQFQLGYKGYIQLALRTGQYKSINCIPIHEGELQKWNPLTEEIEIDFEKRESDAVIGYAAYFELINGFRKTVYWTKAQVEKHKKKFSKSDFGWKNDWDAMALKTVLKAVLSKWGILSVEMQKAVIEEDETRERIDITNEADSSEIIDSE | not soluble
